Assay results from US20200087373A1 (UNIVERSITY OF COPENHAGEN, published 2020).
Ends that are not written are not given here. * marks the point of attachment. Stearoyl = CCCCCCCCCCCCCCCCCC(=O)*; Palmitoyl = CCCCCCCCCCCCCCCC(=O)*; Myristoyl = CCCCCCCCCCCCCC(=O)*; Lauroyl = CCCCCCCCCCCC(=O)*

T1: human GIP receptor (human, UniProt P48546 22-466)
T1 sequence (looked up): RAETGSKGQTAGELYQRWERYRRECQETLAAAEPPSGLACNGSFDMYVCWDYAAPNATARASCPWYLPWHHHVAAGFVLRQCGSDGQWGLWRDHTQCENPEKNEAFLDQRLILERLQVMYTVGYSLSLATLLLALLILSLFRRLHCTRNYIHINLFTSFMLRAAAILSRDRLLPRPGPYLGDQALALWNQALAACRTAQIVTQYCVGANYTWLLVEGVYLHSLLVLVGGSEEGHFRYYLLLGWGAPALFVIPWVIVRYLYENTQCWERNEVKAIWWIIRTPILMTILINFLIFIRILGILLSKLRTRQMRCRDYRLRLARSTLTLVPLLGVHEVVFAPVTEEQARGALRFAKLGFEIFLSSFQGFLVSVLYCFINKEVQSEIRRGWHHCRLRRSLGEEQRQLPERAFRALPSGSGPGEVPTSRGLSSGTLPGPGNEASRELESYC


Experiments:
human GIP receptor [1] = target: T1, human GIP receptor; assay: cell-based or functional assay
human GIP receptor [2] = target: T1, human GIP receptor; assay: 125I-hGIP competition binding, COS-7/hGIPR, 2% HSA;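 note: nonspecific binding defined as radioligand binding to untransfected cells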
Description: (§1) After incubation, the cells were washed twice in ice-cold binding buffer (+/−2% HSA) and lysed using 200 mM NaOH with 1% SDS for 30 min. Nonspecific binding was determined as the binding of radioactive ligand to untransfected cells.

human GIP receptor [3] = target: T1, human GIP receptor; assay: 125I-hGIP competition binding, COS-7/hGIPR, 0.1% casein;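 note: nonspecific binding defined as radioligand binding measured on untransfected cells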
Description: as §1

human GIP receptor [4] = target: T1, human GIP receptor; assay: 125I-hGIP competition binding, COS-7 cells expressing hGIPR;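 note: nonspecific binding taken as radioligand bound by untransfected cells, binding buffer with or without 2% HSA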
Description: as §1

human GIP receptor [5] = target: T1, human GIP receptor; assay: IC50 with 2% HSA over IC50 with 0.1% casein, 125I-hGIP competition, COS-7/hGIPR
Description: as §1

Binder | cAMP agonism, Emax (human GIP receptor [1]) | cAMP antagonism (human GIP receptor [1]) [nM] | cAMP antagonism, log (human GIP receptor [1]) [log M] | IC50 (human GIP receptor [2]) [nM] | logIC50 (human GIP receptor [2]) [log M] | IC50 (human GIP receptor [3]) [nM] | logIC50 (human GIP receptor [3]) [log M] | IC50 (human GIP receptor [4]) [nM] | log IC50 (human GIP receptor [4]) [log M] | Fold change HSA (2%)/Casein (0.1%) (human GIP receptor [5]) [fold]
TKISDYSIAMDKIHQQDFVNWLLAQK (C16-diacid fatty acyl on Lys 6 (GIP numbering); C-terminal amide) [AT168 [hGIP(5-30)NH2[F6K]-C16diacid/6]] | 0 | 96 | -7 | 100 | -7 | 50.1 | -7.3 | 48 | -7.3 | 2
EGTFISDYSIAMDK(Stearoyl)IHQQDFVNWLLAQK-NH2 [AT114 [hGIP(3-30)NH2-C18/16]] | – | – | – | 5460 | -5.3 | 489 | -6.3 | 622 | -6.2 | 11.2
EGTFISDYSIAMDKIK(Lauroyl)QQDFVNWLLAQK-NH2 (N-terminus assumed; SMILES CCCCCCCCCCCC(=O)NCCCC[C@H](NC(=O)[C@@H](NC(=O)[C@H](CCCCN)NC(=O)[C@H](CC(=O)O)NC(=O)[C@H](CCSC)NC(=O)[C@H](C)NC(=O)[C@@H](NC(=O)[C@H](CO)NC(=O)[C@H](Cc1ccc(O)cc1)NC(=O)[C@H](CC(=O)O)NC(=O)[C@H](CO)NC(=O)[C@@H](NC(=O)[C@H](Cc1ccccc1)NC(=O)[C@@H](NC(=O)CNC(=O)[C@@H](N)CCC(=O)O)[C@@H](C)O)[C@@H](C)CC)[C@@H](C)CC)[C@@H](C)CC)C(=O)N[C@@H](CCC(N)=O)C(=O)N[C@@H](CCC(N)=O)C(=O)N[C@@H](CC(=O)O)C(=O)N[C@@H](Cc1ccccc1)C(=O)N[C@H](C(=O)N[C@@H](CC(N)=O)C(=O)N[C@@H](Cc1c[nH]c2ccccc12)C(=O)N[C@@H](CC(C)C)C(=O)N[C@@H](CC(C)C)C(=O)N[C@@H](C)C(=O)N[C@@H](CCC(N)=O)C(=O)N[C@@H](CCCCN)C(N)=O)C(C)C) [AT116 [hGIP(3-30)NH2-C12/18]] | – | – | – | 321 | -6.5 | 62 | -7.2 | 71.2 | -7.1 | 5.2
EGTFISDYSIAMDKIK(Palmitoyl)QQDFVNWLLAQK-NH2 (N-terminus assumed; SMILES CCCCCCCCCCCCCCCC(=O)NCCCC[C@H](NC(=O)[C@@H](NC(=O)[C@H](CCCCN)NC(=O)[C@H](CC(=O)O)NC(=O)[C@H](CCSC)NC(=O)[C@H](C)NC(=O)[C@@H](NC(=O)[C@H](CO)NC(=O)[C@H](Cc1ccc(O)cc1)NC(=O)[C@H](CC(=O)O)NC(=O)[C@H](CO)NC(=O)[C@@H](NC(=O)[C@H](Cc1ccccc1)NC(=O)[C@@H](NC(=O)CNC(=O)[C@@H](N)CCC(=O)O)[C@@H](C)O)[C@@H](C)CC)[C@@H](C)CC)[C@@H](C)CC)C(=O)N[C@@H](CCC(N)=O)C(=O)N[C@@H](CCC(N)=O)C(=O)N[C@@H](CC(=O)O)C(=O)N[C@@H](Cc1ccccc1)C(=O)N[C@H](C(=O)N[C@@H](CC(N)=O)C(=O)N[C@@H](Cc1c[nH]c2ccccc12)C(=O)N[C@@H](CC(C)C)C(=O)N[C@@H](CC(C)C)C(=O)N[C@@H](C)C(=O)N[C@@H](CCC(N)=O)C(=O)N[C@@H](CCCCN)C(N)=O)C(C)C) [AT117 [hGIP(3-30)NH2[H18K]-C16/18]] | – | – | – | 1730 | -5.8 | 110 | -7 | 292 | -6.5 | 15.7
TFISDYSIAMDK(Lauroyl)IHQQDFVNWLLAQK-NH2 (N-terminus assumed; SMILES CCCCCCCCCCCC(=O)NCCCC[C@H](NC(=O)[C@H](CC(=O)O)NC(=O)[C@H](CCSC)NC(=O)[C@H](C)NC(=O)[C@@H](NC(=O)[C@H](CO)NC(=O)[C@H](Cc1ccc(O)cc1)NC(=O)[C@H](CC(=O)O)NC(=O)[C@H](CO)NC(=O)[C@@H](NC(=O)[C@H](Cc1ccccc1)NC(=O)[C@@H](N)[C@@H](C)O)[C@@H](C)CC)[C@@H](C)CC)C(=O)N[C@H](C(=O)N[C@@H](Cc1c[nH]cn1)C(=O)N[C@@H](CCC(N)=O)C(=O)N[C@@H](CCC(N)=O)C(=O)N[C@@H](CC(=O)O)C(=O)N[C@@H](Cc1ccccc1)C(=O)N[C@H](C(=O)N[C@@H](CC(N)=O)C(=O)N[C@@H](Cc1c[nH]c2ccccc12)C(=O)N[C@@H](CC(C)C)C(=O)N[C@@H](CC(C)C)C(=O)N[C@@H](C)C(=O)N[C@@H](CCC(N)=O)C(=O)N[C@@H](CCCCN)C(N)=O)C(C)C)[C@@H](C)CC) [AT119 [hGIP(5-30)NH2-C12/16]] | – | – | – | 2660 | -5.6 | 369 | -6.4 | 194 | -6.7 | 7.2
Myristoyl-TFISDYSIAMDKIHQQDFVNWLLAQK-NH2 (SMILES CCCCCCCCCCCCCC(=O)N[C@H](C(=O)N[C@@H](Cc1ccccc1)C(=O)N[C@H](C(=O)N[C@@H](CO)C(=O)N[C@@H](CC(=O)O)C(=O)N[C@@H](Cc1ccc(O)cc1)C(=O)N[C@@H](CO)C(=O)N[C@H](C(=O)N[C@@H](C)C(=O)N[C@@H](CCSC)C(=O)N[C@@H](CC(=O)O)C(=O)N[C@@H](CCCCN)C(=O)N[C@H](C(=O)N[C@@H](Cc1c[nH]cn1)C(=O)N[C@@H](CCC(N)=O)C(=O)N[C@@H](CCC(N)=O)C(=O)N[C@@H](CC(=O)O)C(=O)N[C@@H](Cc1ccccc1)C(=O)N[C@H](C(=O)N[C@@H](CC(N)=O)C(=O)N[C@@H](Cc1c[nH]c2ccccc12)C(=O)N[C@@H](CC(C)C)C(=O)N[C@@H](CC(C)C)C(=O)N[C@@H](C)C(=O)N[C@@H](CCC(N)=O)C(=O)N[C@@H](CCCCN)C(N)=O)C(C)C)[C@@H](C)CC)[C@@H](C)CC)[C@@H](C)CC)[C@@H](C)O) [AT121 [hGIP(5-30)NH2-C14/5]] | – | – | – | 966 | -6 | 170 | -6.8 | 173 | -6.8 | 5.7
TFISDYSIAMDK(Myristoyl)IHQQDFVNWLLAQK-NH2 (N-terminus assumed; SMILES CCCCCCCCCCCCCC(=O)NCCCC[C@H](NC(=O)[C@H](CC(=O)O)NC(=O)[C@H](CCSC)NC(=O)[C@H](C)NC(=O)[C@@H](NC(=O)[C@H](CO)NC(=O)[C@H](Cc1ccc(O)cc1)NC(=O)[C@H](CC(=O)O)NC(=O)[C@H](CO)NC(=O)[C@@H](NC(=O)[C@H](Cc1ccccc1)NC(=O)[C@@H](N)[C@@H](C)O)[C@@H](C)CC)[C@@H](C)CC)C(=O)N[C@H](C(=O)N[C@@H](Cc1c[nH]cn1)C(=O)N[C@@H](CCC(N)=O)C(=O)N[C@@H](CCC(N)=O)C(=O)N[C@@H](CC(=O)O)C(=O)N[C@@H](Cc1ccccc1)C(=O)N[C@H](C(=O)N[C@@H](CC(N)=O)C(=O)N[C@@H](Cc1c[nH]c2ccccc12)C(=O)N[C@@H](CC(C)C)C(=O)N[C@@H](CC(C)C)C(=O)N[C@@H](C)C(=O)N[C@@H](CCC(N)=O)C(=O)N[C@@H](CCCCN)C(N)=O)C(C)C)[C@@H](C)CC) [AT122 [hGIP(5-30)NH2-C14/16]] | – | – | – | 6080 | -5.2 | 1230 | -5.9 | 591 | -6.2 | 4.9
Palmitoyl-TFISDYSIAMDKIHQQDFVNWLLAQK-NH2 (SMILES CCCCCCCCCCCCCCCC(=O)N[C@H](C(=O)N[C@@H](Cc1ccccc1)C(=O)N[C@H](C(=O)N[C@@H](CO)C(=O)N[C@@H](CC(=O)O)C(=O)N[C@@H](Cc1ccc(O)cc1)C(=O)N[C@@H](CO)C(=O)N[C@H](C(=O)N[C@@H](C)C(=O)N[C@@H](CCSC)C(=O)N[C@@H](CC(=O)O)C(=O)N[C@@H](CCCCN)C(=O)N[C@H](C(=O)N[C@@H](Cc1c[nH]cn1)C(=O)N[C@@H](CCC(N)=O)C(=O)N[C@@H](CCC(N)=O)C(=O)N[C@@H](CC(=O)O)C(=O)N[C@@H](Cc1ccccc1)C(=O)N[C@H](C(=O)N[C@@H](CC(N)=O)C(=O)N[C@@H](Cc1c[nH]c2ccccc12)C(=O)N[C@@H](CC(C)C)C(=O)N[C@@H](CC(C)C)C(=O)N[C@@H](C)C(=O)N[C@@H](CCC(N)=O)C(=O)N[C@@H](CCCCN)C(N)=O)C(C)C)[C@@H](C)CC)[C@@H](C)CC)[C@@H](C)CC)[C@@H](C)O) [AT124 [hGIP(5-30)NH2-C16/5]] | – | – | – | 8240 | -5.1 | 1590 | -5.8 | 361 | -6.4 | 5.2
